In patent US20110039780A1 (Pfizer, published 2011):
Residue numbers refer to the chain shown, from its start. Numbers in names are those of the source.

Experiments:
α-thrombin [1] = target: T1, α-thrombin (UniProt P00734 328-363; P00734 364-622); test: Biacore assay
Method: (§1) The binding abilities of GPIbα-290/2V-Ig and GPIbα-290-2V/FFF-Ig to vWF and a-thrombin were evaluated in vitro using a Biacore assay.

[2] = target: T2, intact von Willebrand factor (UniProt P04275 764-2813, limits assumed); test: SPR (BiaCore); non-sulfated isoform
T2 construct: also called vWF; intact vWF

[3] = target: T2, intact von Willebrand factor; test: SPR (BiaCore); 0 sulfated (unsulfated)
vWF A1 domain [4] = target: T3, vWF A1 domain (UniProt P04275 1261-1468, limits assumed); test: binding constant; method not stated in Example 3
T3 construct: domain: A1; also called vWF A1 fragment

[5] = target: T2, intact von Willebrand factor; test: binding constant; method not stated in Example 3
vWF A1 domain [6] = target: T3, vWF A1 domain; test: Biacore assay
vWF A1 domain [7] = target: T3, vWF A1 domain; test: Biacore assay; remark: listed apart in the source
Method: as §1

α-thrombin [8] = target: T1, α-thrombin; test: SPR (BiaCore)
[9] = target: T2, intact von Willebrand factor; test: SPR (BiaCore); fully sulfated isoform
[10] = target: T2, intact von Willebrand factor; test: SPR (BiaCore); 6 sulfated (fully sulfated)

B1: GPIbα-IgG1Fc fusion protein with a wild-type human GPIbα sequence (Fc fusion)
chain: HPICEVSKVASHLEVNCDKRNLTALPPDLPKDTTILHLSENLLYTFSLATLMPYTRLTQLNLDRCELTKLQVDGTLPVLGTLDLSHNQLQSLPLLGQTLPALTVLDVSFNRLTSLPLGALRGLGELQELYLKGNELKTLPPGLLTPTPKLEKLSLANNNLTELPAGLLNGLENLDTLLLQENSLYTIPKGFFGSHLLPFAFLHGNPWLCNCEILYFRRWLQDNAENVYVWKQGVDVKAMTSNVASVQCDNSDKFPVYKYPGKGCPTLGDEGDTDLYDYYPEEDTEGDKVR
modifications: tyrosines 276, 278, 279 can be sulfated; sulfation state of the tested material not stated
notes: Made in CHO cells; dimerized forms were isolated; also called WT; GPIb-Ig WT; not shown: IgG1 Fc
Binder B1 has a Kd (α-thrombin [1]) of 760 nM.

B2: GPIbα-IgG1Fc fusion protein 1V (M239V), non-sulfated isoform (Fc fusion)
chain: B1 chain with M239V
modifications: tyrosines 276, 278, 279 not sulfated (sulfation state 0)
notes: also called 1V 0 sulfated; GP Ibα-Ig239V unsulfated isoform; not shown: IgG1 Fc
B2 gave a Kd [2] of 284 nM and a Kd [3] of 113 to 521 nM.

B3: GPIbα fusion protein variant 3V (G233V K237V M239V) (Fc fusion, not shown: large carriers)
chain: B1 chain with G233V, K237V, M239V
In the case of B3, the Ka (vWF A1 domain [4]) is reported as 1.5e+09 M⁻¹ and the Ka [5] is reported as 1.7e+09 M⁻¹.

B4: GPIb-290/2V/FFF-Ig (GPIb-290/2V-Ig with Tyr-276, 278, 279 changed to phenylalanine) (Fc fusion)
chain: B1 chain with G233V, M239V, Y276F, Y278F, Y279F
notes: Non-sulfated chimera; also called GPIbα-290/2V/FFF-Ig; GPIbα-290-2V/FFF-Ig; not shown: human IgG1 Fc domain
For B4, the “fold decrease in binding against GPIb-290/2V-Ig” value (vWF A1 domain [6]) was about 3 fold, the Kd (vWF A1 domain [7]) was 15.4 nM and the Kd (α-thrombin [1]) was 35800 nM. It also gave a Ka (vWF A1 domain [4]) of 9.1e+07 M⁻¹ and a Ka [5] of 2.4e+08 M⁻¹.

B5: GPIbα-IgG1Fc fusion protein with the M239V (1V) substitution (Fc fusion)
chain: B1 chain with M239V
modifications: tyrosines 276, 278, 279 can be sulfated; sulfation state not stated
notes: also called GP Ibα-Ig239V; not shown: IgG1 Fc
B5 showed a Ka [5] of 7.7e+07 M⁻¹.

B6: GPIb-290/2V-Ig (N-terminal 290 amino acids of GPIbα with G233V M239V fused to a human IgG1 Fc domain) (Fc fusion)
chain: B1 chain with G233V, M239V
modifications: sulfated tyrosines at 276, 278, 279 (extent not stated)
notes: also called GPIb2V-Ig; GP Ib-Ig2V; not shown: human IgG1 Fc domain
For B6, the Kd (vWF A1 domain [7]) was 5 nM, the Kd (α-thrombin [1]) was 630 nM and the Ka (vWF A1 domain [4]) was 1.9e+08 M⁻¹. For the same binder, the Ka [5] was 5.6e+08 M⁻¹.

B7: GPIbα-IgG1Fc fusion protein 1V (M239V), fully sulfated isoform (Fc fusion)
chain: B1 chain with M239V
modifications: sulfotyrosine at 276, 278 and 279 (fully sulfated: sulfation state 6 per dimer)
notes: also called 1V 6 sulfated; GP Ibα-Ig239V fully sulfated isoform; not shown: IgG1 Fc
B7 was tested, and the “fold higher binding affinity than the unsulfated isoform” value (α-thrombin [8]) was about 80 fold, the Kd [9] was 119 nM and the Kd [10] was 113 to 521 nM.

B8: GPIbα-IgG1Fc fusion protein 2V (G233V M239V), fully sulfated isoform (Fc fusion)
chain: B1 chain with G233V, M239V
modifications: sulfotyrosine at 276, 278 and 279 (fully sulfated: sulfation state 6 per dimer)
notes: also called 2V 6 sulfated; GP Ib-Ig2V fully sulfated isoform; not shown: IgG1 Fc
With B8 the “fold higher binding affinity than the unsulfated isoform” value (α-thrombin [8]) was about 80 fold, the Kd [9] was 4 nM and the Kd [10] was 3.4 to 15 nM.

B9: GPIbα-IgG1Fc fusion protein 2V (G233V M239V), non-sulfated isoform (Fc fusion)
chain: B1 chain with G233V, M239V
modifications: tyrosines 276, 278, 279 not sulfated (sulfation state 0)
notes: also called 2V 0 sulfated; GP Ib-Ig2V unsulfated isoform; not shown: IgG1 Fc
B9 gave a Kd [2] of 12 nM and a Kd [3] of 3.4 to 15 nM.

B10: GPIbα fusion protein variant 3V/C65S (Fc fusion, not shown: large carriers)
chain: B1 chain with C65S, G233V, K237V, M239V
notes: also called 3V/C-S
B10 was tested, and the Ka (vWF A1 domain [4]) was 1.5e+09 M⁻¹ and the Ka [5] was 1.7e+09 M⁻¹.
